Biological target: TROP-2 (EGP-1, epithelial glycoprotein-1) (human) (UniProt P09758)
Test: cell-based or functional assay

TROP-2 (EGP-1, epithelial glycoprotein-1) (human), sequence (P09758 27-323): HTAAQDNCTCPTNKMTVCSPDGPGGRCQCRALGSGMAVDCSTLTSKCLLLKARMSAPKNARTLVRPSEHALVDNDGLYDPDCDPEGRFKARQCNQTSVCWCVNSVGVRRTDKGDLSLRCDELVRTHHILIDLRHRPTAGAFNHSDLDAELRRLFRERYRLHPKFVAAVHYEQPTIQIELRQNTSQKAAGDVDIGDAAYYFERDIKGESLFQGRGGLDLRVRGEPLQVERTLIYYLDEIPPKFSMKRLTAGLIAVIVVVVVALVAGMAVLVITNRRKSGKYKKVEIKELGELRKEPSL

- ADCC, specific lysis of BxPC-3 target cells (PBMC effectors, effector to target ratio 100:1, 33.3 nM): 8.5%
B1: hRS7 (humanized anti-TROP-2 / anti-EGP-1 antibody), unconjugated IgG (antibody, INN chains, looked up, V domains shown)
VH: QVQLQQSGSELKKPGASVKVSCKASGYTFTNYGMNWVKQAPGQGLKWMGWINTYTGEPTYTDDFKGRFAFSLDTSVSTAYLQISSLKADDTAVYFCARGGFGSSYWYFDVWGQGSLVTVSS
VL: DIQLTQSPSSLSASVGDRVSITCKASQDVSIAVAWYQQKPGKAPKLLIYSASYRYTGVPDRFSGSGSGTDFTLTISSLQPEDFAVYYCQQHYITPLTFGAGTKVEIK

Source: patent publication US20140219956A1
